Assay results from patent publication US20220153873A1 (ICAHN SCHOOL OF MEDICINE AT MOUNT SINAI, published 2022).
“And” between values parts separate entries of the source, which are not always exact repeats. Equal entries are not always repeated.

Assays:
[1] = target: recombinant neuraminidase (rNA) of B/Wisconsin/1/10 (influenza B virus B/Wisconsin/1/10)
[2] = target: recombinant neuraminidase (rNA) of B/Malaysia/2506/04 (influenza B virus B/Malaysia/2506/04)

B1: HC0LC0 (antibody, V domains shown)
VH: QVHLQQSGPEVARPGASVKLSCKASGYTFTDYYLNWVKQRPRQGLEWIGQIHPGSTNTYYNEKFKGKATLTADKSSSTAYMQLSSLTSEDSAVYFCARSLGDGYYVYAMDYWGQGTAVTVSS
VL: DIVMTQSQKFMSTSVGDRVSVTCKASQNVVTNVVWYQQKPGQSPKPLIYSASYRYSGVPDRFTGSGSGTDFTLTISNVQSEDLAEYCCQQYHSYPFTFGSGTKLEVKR
- Early Stability X=902 [1]: 0.32 nm and 0.3 nm and 0.33 nm
- % Dissociation [2]: 0.52% and 0%
